# Assay results reported in publication PMC6791878, “Evaluation of integrin αvβ6 cystine knot PET tracers to detect cancer and idiopathic pulmonary fibrosis” (Nature Communications, 2019).
# Values joined by “and” are separate entries in the source; they are usually repeats but may differ in a detail not shown here. Equal values may be shown once. Read-outs that look alike come from different tables or passages of the source.
# How the values were obtained:
# [1] = system: pancreatic, cervical and lung cancer
# Method: (§3) The administered dose was 55.5–96.2MBq (1.5–2.6 mCi). The scan (6 bed positions, 2 min bed^−1) covered an area that included the top of the skull to the middle of the femur. OSEM was applied for reconstruction. […] The CT scan (140 kV, 35 mA, pitch of 1:1, layer of 5 mm thickness; layer spacing of 3 mm, 512*512 matrix, field of view of 70 cm) also covered the top of the skull to the middle of the femur. […] Immediately upon completion of the first scan, the second whole-body static PET data was acquired. Sequentially, multiple whole-body static PET scans were acquired, one by one, from 0 to 75 min.
# (§4) Upon co-registration of the PET and CT images, the CT images were used to determine regions of interest for the organs or tissues reported in the manuscript. These ROIs were applied to the PET images of the brain, pituitary gland, breast, lower and upper large intestine, small intestine, stomach, pancreas, heart wall, liver, lung, muscle, red marrow, bone, skin, and thyroid gland. For high uptake organs such as the kidneys, bladder and for the whole body, threshold-based segmentation of PET images were used to determine a close-fitting ROI around the entire organ or whole body. In order to determine accuracy, these PET-derived ROIs were compared to the CT overlay for a close match.
# [2] = Static small animal PET, integrin αvβ6-positive tumor model; format: in vivo, mouse; details: female, athymic nude (Nu/Nu), mouse, in vivo, iv, 100 uCi, total radioactivity, PET, 1 h p.i., average ± SD, n = 3
# From the text: (§1) Eight planes were acquired in the coronal section.
# (§2) Supplementary Figure 5. [18F]FP-R01-MG-F2 Static PET Imaging. (A) Representative PET images of nu/nu mice bearing in integrin αvβ6-positive A431 xenografts (left) and integrin αvβ6-negative 293 xenograft (right) models following injection of […] [18F]FP-R01-MG-F2. Location of tumor and kidneys are indicated by the letters T and K.
# [3] = system: integrin αvβ6-positive A431 xenografts; assay: as above; format: in vivo, mouse
# From the text: as §1, §2
# [4] = system: integrin αvβ6-positive A431 xenografts; assay: as above; format: in vivo, mouse; details: microPET 1 hr, individual mice, listed as Ro1-MG NODAGA Ga-68
# clinical = details: human, iv, total radioactivity
# Method: as §3, §4
# [5] = 49 min p.i., one patient, Fig 4C
# [6] = 61 min p.i., one patient, Fig 4C
# [7] = microPET 1 hr, individual mice, listed as Ro1-MG NODAGA Ga-68
compound,measurement,setting,value
"CC[C@H](C)[C@@H]1NC(=O)[C@@H](NC(=O)CNC(=O)CCC(C(=O)O)N2CCN(CC(=O)O)CCN(CC(=O)O)CC2)CSSC[C@@H]2NC(=O)[C@H](C)NC(=O)CNC(=O)[C@@H]3CCCN3C(=O)[C@@H]3CSSC[C@@H](C(=O)NCC(N)=O)NC(=O)[C@H](Cc4ccc(O)cc4)NC(=O)CNC(=O)[C@H](CC(N)=O)NC(=O)CNC(=O)[C@H](CCCNC(=N)N)NC(=O)[C@H](CSSC[C@H](NC(=O)[C@H](CCCNC(=N)N)NC(=O)[C@H](Cc4ccccc4)NC(=O)[C@H](CC(C)C)NC(=O)[C@H](CC(C)C)NC(=O)[C@H]([C@@H](C)O)NC(=O)CNC(=O)[C@H](CC(C)C)NC(=O)[C@H](CC(=O)O)NC(=O)[C@H]([C@@H](C)O)NC(=O)[C@H](CCCNC(=N)N)NC(=O)CNC(=O)[C@H](CC(N)=O)NC(=O)[C@H](CC(C)C)NC1=O)C(=O)N[C@@H](CCCNC(=N)N)C(=O)N[C@@H](CCCNC(=N)N)C(=O)N[C@@H](CC(=O)O)C(=O)N[C@@H](CO)C(=O)N[C@@H](CC(=O)O)C(=O)N3)NC(=O)[C@H]([C@@H](C)CC)NC2=O (some centres unmarked) [[^68Ga]NODAGA-R01-MG, metal not drawn]",ROI uptake Pn (pancreas),[1]; [5],0.9657
same,ROI uptake Pt (pituitary gland),[1]; [5],2.212
same,ROI uptake RM (red marrow),[1]; [5],0.1942
same,ROI uptake SI (small intestine),[1]; [5],6.546
same,ROI uptake Sk (skin),[1]; [5],0.07665
same,ROI uptake Sp (spleen),[1]; [5],0.373
same,ROI uptake St (stomach),[1]; [5],2.34
same,ROI uptake TB (total body),[1]; [5],0.6949
same,ROI uptake Tm (thymus),[1]; [5],0.5876
same,ROI uptake Tr (thyroid),[1]; [5],0.5416
same,ROI uptake ULI (upper large intestine),[1]; [5],1.661
same,ROI uptake Bl (bladder),[1]; [6],9.011
same,ROI uptake Bn (osteogenic cells),[1]; [6],0.8028
same,ROI uptake Br (brain),[1]; [6],0.04398
same,ROI uptake Brs (breast),[1]; [6],0.7155
same,ROI uptake HC (heart contents),[1]; [6],0.5817
same,ROI uptake HW (heart wall),[1]; [6],0.3897
same,ROI uptake LLI (lower large intestine),[1]; [6],1.338
same,ROI uptake Ln (lung),[1]; [6],0.3258
same,ROI uptake Lv (liver),[1]; [6],0.6399
same,ROI uptake Ms (muscle),[1]; [6],0.9889
same,ROI uptake Pn (pancreas),[1]; [6],1.129
same,ROI uptake Pt (pituitary gland),[1]; [6],2.048
same,ROI uptake RM (red marrow),[1]; [6],0.07562
same,ROI uptake SI (small intestine),[1]; [6],6.597
same,ROI uptake Sk (skin),[1]; [6],0.1047
same,ROI uptake Sp (spleen),[1]; [6],0.4654
same,ROI uptake St (stomach),[1]; [6],2.513
same,ROI uptake TB (total body),[1]; [6],0.5643
same,ROI uptake Tm (thymus),[1]; [6],0.5119
same,ROI uptake Tr (thyroid),[1]; [6],0.4479
same,ROI uptake ULI (upper large intestine),[1]; [6],1.478
same,"Bl, PET uptake, Average","[1]; Average of patients, 29-60 min",25.3728
same,"Bn, PET uptake, Average","[1]; Average of patients, 29-60 min",0.4809
same,"Br, PET uptake, Average","[1]; Average of patients, 29-60 min",0.09236
same,"Brs, PET uptake, Average","[1]; Average of patients, 29-60 min",0.4271
same,"CA, PET uptake, Average","[1]; Average of patients, 29-60 min",4.033
same,"HC, PET uptake, Average","[1]; Average of patients, 29-60 min",0.8404
same,"HW, PET uptake, Average","[1]; Average of patients, 29-60 min",0.6923
same,"LLI, PET uptake, Average","[1]; Average of patients, 29-60 min",1.574
same,"Ln, PET uptake, Average","[1]; Average of patients, 29-60 min",0.4315
same,"Lv, PET uptake, Average","[1]; Average of patients, 29-60 min",0.7253
same,"Ms, PET uptake, Average","[1]; Average of patients, 29-60 min",0.5597
same,"Pn, PET uptake, Average","[1]; Average of patients, 29-60 min",1.617
same,"Pt, PET uptake, Average","[1]; Average of patients, 29-60 min",3.247
same,"RM, PET uptake, Average","[1]; Average of patients, 29-60 min",0.2168
same,"SI, PET uptake, Average","[1]; Average of patients, 29-60 min",7.061
same,"Sk, PET uptake, Average","[1]; Average of patients, 29-60 min",0.1123
same,"Sp, PET uptake, Average","[1]; Average of patients, 29-60 min",0.4371
same,"St, PET uptake, Average","[1]; Average of patients, 29-60 min",8.975
same,"TB, PET uptake, Average","[1]; Average of patients, 29-60 min",0.841
same,"Tm, PET uptake, Average","[1]; Average of patients, 29-60 min",0.6358
same,"Tr, PET uptake, Average","[1]; Average of patients, 29-60 min",1.023
same,"ULI, PET uptake, Average","[1]; Average of patients, 29-60 min",1.719
same,adverse reactions,"[1]; ~2 mCi i.v., ~1 h p.i., lasted about an hour, disappeared without treatment",One patient reported nausea and vertigo
same,tissue uptake at 1 h,"[2]; αvβ6 (+), read-out: Tumor",2.78 ± 0.3 %ID/g
same,tissue uptake at 1 h,[2]; read-out: Kidney,30.1 ± 5.51 %ID/g
same,tissue uptake at 1 h,[2]; read-out: Liver,1.2 ± 0.35 %ID/g
same,tissue uptake at 1 h,[2]; read-out: Muscle,0.589 ± 0.124 %ID/g
same,tissue to tissue ratio at 1 h,[2]; read-out: T:M Ratio (tumor-to-muscle),4.86 ± 1.04
same,Muscle,"[3]; PET, 1 h p.i., average ± SD, n = 3",0.6 ± 0.1 %ID g^−1
same,Kidney,[3]; [7],34.6175 and 26.042 and 24.5731 and 34.9763
same,Muscle,[3]; [7],0.5495 and 0.6119 and 0.4496 and 0.7461
same,Tumor avb6(+),[4]; source data of Table 3,3.142 and 2.463 and 2.614 and 2.906
same,Liver,[4],0.7389 and 1.216 and 1.257 and 1.6013
same,SUV,"clinical; both, kidney, average SUVmean, ~1 h p.i., cancer patients",19.9 ± 2.23 SUV
same,SUV,"clinical; both, normal pancreas, SUVmean, n = 5, ± S.D.",1.79 ± 0.47 SUV
same,SUV,"clinical; both, pancreatic tumour, average SUVmean, pancreatic cancer, pancreatic cancer patients",4.2 ± 0.1 SUV
same,SUV,"clinical; both, small intestines, average SUVmean, cancer patients",7.06 ± 2.74 SUV
same,SUV,"clinical; both, stomach, average SUVmean, cancer patients",8.87 ± 6.52 SUV
same,SUV,"clinical; head of pancreas, SUVmean, one pancreatic cancer patient (Fig 4d)",~3.1 SUV
same,SUV,"clinical; lung tumor, SUVmean, patient, squamous cell carcinoma of the lung",2.2 SUV
same,SUV,"clinical; tail of pancreas, SUVmean, one pancreatic cancer patient (Fig 4d)",~4.4 SUV
same,SUV,"clinical; tumor in tail of pancreas, 2.2 mCi, SUVmean, patient, ~50 minutes p.i.",4.3 SUV
